System: MS2 coat protein
Experiment: apparent KD of MS2 coat protein; designed switch direction (-1 OFF switch, 1 ON switch): -1; higher = weaker reporter binding
In short: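 Three titration conditions were used: no input, 200 uM small-molecule ligand, and an oligonucleotide input. In each, SNAP-549-labelled MS2 coat protein was raised from 0.7 or 1.5 nM, doubling, to 3 µM over designed RNA switches transcribed on Illumina chips by stalled E. coli RNA polymerase. Curve fits of normalised cluster fluorescence gave values whose per-design median over clusters is the apparent KD.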

[1] = Eterna round: R95, input ligand: FMN 200 uM
[2] = Eterna round: R95, input ligand: none
[3] = input ligand: microRNA oligo, concentration not stated
[4] = Eterna round: R95, input ligand: microRNA oligo, concentration not stated

Sequence	apparent KD of MS2 coat protein (input ligand: FMN 200 uM) [nM]	apparent KD of MS2 coat protein (input ligand: none) [nM]	apparent KD of MS2 coat protein [1] [nM]	apparent KD of MS2 coat protein [2] [nM]	apparent KD of MS2 coat protein [3] [nM]	apparent KD of MS2 coat protein [4] [nM]
UGUUGUUCAGGAUAUGAUGUAUAAUACAUGAGGAUCACCCAUGUAGAUCCUGAAUUAACAUCAGAAGGGAAUGUUG [salish99_ex5_r4_102] (Eterna round: R97, puzzle: Exclusion 5)	19.4	15.2	–	–	–	–
UGUUGUUCAGGAUAUGAUGUAUAAUACAUGAGGAUCACCCAUGUAGAUCCUGAUUUGGCGUCAGAAGGGAAUGUUG [salish99_ex5_r4_106] (Eterna round: R97, puzzle: Exclusion 5)	41	33.2	–	–	–	–
UGUUGUUGUUUCCGUUCUUACAUGAGGAUCACCCAUGUUUCUUGUCGUGCUCGCGUUGCUCGUCAGACUACCUGUUG [salish99_TOv1_r3_065] (puzzle: Sensor v3, turn-off variant 1)	–	–	93.4	151	–	–
UUAAAUCAUGUAGGAUAUGCGUGGAGAAACUAUGCAGAAGGACAUGAGGAUCACCCAUGUGCUUCCGUCUGCGUACAGAUGGUA [Mat - Exclusion NG 1 - Mod of JL - D8] (Eterna round: R96, puzzle: Exclusion NG 1)	–	–	–	–	21.1	–
UUAAAUCAUGUAGGAUAUGCGUGGCAAAGCUAUGCAGAAGGACAUGAGGAUCACCCAUGUUCUAGCGUCUGAGAACAGAUGCUA [Mat - Exclusion NG 1 - Mod of JL - D78] (Eterna round: R96, puzzle: Exclusion NG 1)	566	47.7	–	–	24.2	–
UUAAAUCAUGUAGGAUAUGCGUGGCGAAGCUAUGCAGAAGGACAUGAGGAUCACCCAUGUGCUGCGGUCUGCGUACAGAUCGCU [JL ENG1 1.03] (Eterna round: R96, puzzle: Exclusion NG 1)	98.7	142	–	–	76.4	–
UUAAAUCAUGUAGGAUAUGCGUGGCGAAGCUAUGCAGAAGGACAUGAGGAUCACCCAUGUUCAUCCGUCUGCGUACAGAUGGAA [JL Eng1 1.08 mod 1] (Eterna round: R96, puzzle: Exclusion NG 1)	271	28.2	–	–	21.6	–
UUAACAUGCUGGUGAUCAUACAUGAGGAUCACCCAUGUAACAAGCUUUUUGCUCGUCUUAUAAGAUCACCAGCAUGU [Stov1/9-A1] (Eterna round: R97, puzzle: Sensor, turn-off variant 1)	14.7	12.2	–	–	–	–
UUAACGUCAGGAUAUGCUUAAUAUAUUAUAUUAUAAUAUAUACAUGAGGAUCACCCAUGUAGAAGGGACAUUAU [LRO-Excl2-02-Fireball XL5] (Eterna round: R97, puzzle: Exclusion 2)	34.1	52.1	–	–	–	–
UUAAUACAUGUAGGAUAUGCGUGGCGAAGCUAUGCAGAAGGACAUGAGGAUCACCCAUGUUCUAGCGUCCGCGUACGGAUGCAA [JL Eng1 1.21 mod 9] (Eterna round: R96, puzzle: Exclusion NG 1)	16.4	14.8	–	–	12	–
UUAAUAGCAGCGAGAUCCCACAUGAGGAUCACCCAUGUCGUAGACGAAAAGUCUACGUUAGCUCGUCUUAUAAAUAU [Winner reversed engineered 39] (Eterna round: R97, puzzle: Sensor, turn-off variant 1)	95.1	111	–	–	–	–
UUAAUGUGAGGAUAUCAGGUGUGAUAGAGUAAUGGUAAAUCUGAGAAGGCACAUGAGGAUCACCCAUGUUCUUC [Mat - Exclusion 4 - Mod of JL - D58] (puzzle: Exclusion 4)	–	–	–	–	–	21.5
UUAAUUAAUUGACUGCAAGAUCAACAUGAGGAUCACCCAUGUGAGGAUAUCAGCUCGUUUAGAGCUGAGAAGGCACAAGCAGUC [ExNG3/16-A2] (Eterna round: R96, puzzle: Exclusion NG 3)	53.6	17.6	–	–	16.7	–
UUAAUUAAUUUAAUAUAAGAUCACAUGAGGAUCACCCAUGUAUAGGAUAUCAGCUCGUUUAGAGCUGAGAAGGAUACAUAAUAU [ExNG3/2-B2] (Eterna round: R96, puzzle: Exclusion NG 3)	292	230	–	–	328	–
UUAAUUAGCUCGCUAGAUCCUCACAUGAGGAUCACCCAUGUGCAGGAUAUCAGCUCGUUUAGAGCUGAGAAGGGCACUGCGAGC [ExNG3/10-A2] (Eterna round: R96, puzzle: Exclusion NG 3)	147	114	–	–	120	–
UUACAAUGUCGCUUAUAAGCUUUUUGCUCGUCUUAUAUUACAUGAGGAUCACCCAUGUAGAUCAUGUGGCGUGACCU [JL ViennaUCT Maridi mod 8] (puzzle: Sensor v3, turn-off variant 2)	–	–	264	345	–	47.9
UUACGGCGGAUCGUGGCUUUUUGCUCGUCUUGUGCUACAACAUGAGGAUCACCCAUGUAGAGGUGAUCCGUUGUAUU [Grok-var2-19 mod JAL] (Eterna round: R96, puzzle: Sensor v3, turn-off variant 2)	342	740	–	–	13.4	–
UUACGGCGGAUCGUGGCUUUUUGCUCGUCUUGUGCUACAACAUGAGGAUCACCCAUGUAGAGGUGAUCCGUUGUAUU [Grok-var2-19 mod JAL] (puzzle: Sensor v3, turn-off variant 2)	–	–	92.4	120	–	22.3
UUAGAUAGGUCAGGAUAUCGAUGAUUGAAUUGUAUGAUUUACAUGAGGAUCACCCAUGUUUUGUACGAGAAGGGACGUUAGUUU [JR_ExcNG2_Sub019] (Eterna round: R96, puzzle: Exclusion NG 2)	25.3	33.5	–	–	26.1	–
UUAGCUUCAGGAUAUACAGUGGGCUGGGAUCUAAAGAUCAAACAUGAGGAUCACCCAUGUAGAAGGGAACGGAA [Eternabot (L2) Solution 32] (Eterna round: R97, puzzle: Exclusion 2)	380	145	–	–	–	–
UUAGUUGGAGGAUAUACGCCGUUUGACAUGAGGAUCACCCAUGUAGAGGCUUAUGUCAAUGUAGAAGGCCGUUUGG [Eternabot (L2) Solution 12] (Eterna round: R97, puzzle: Exclusion 5)	26.3	18.7	–	–	–	–
UUAUAAAGUGUGAGGAUAUGCUGGUCGAUAGAUCAGCAGAAGGCACAUGAGGAUCACCCAUGUAAUAUAUUUUU [Mat - Exclusion 4 - JL Mod - D44] (puzzle: Brourd's mod of Exclusion 4)	–	–	–	–	–	45.1
UUAUGGCGAGAGGAUAUUCUGCUACGGCCCGGAGAAGAAGGUUUGACAUGAGGAUCACCCAUGUGGUCGCUCCU [Eternabot (L2) Solution 29] (Eterna round: R97, puzzle: Exclusion 6)	138	238	–	–	–	–
UUAUGUGCGAGAGGAUAUCGUGUACAAAGUACACGAGAAGGCUUCACAUGAGGAUCACCCAUGUACCGAGGUGAAACACCUUGA [Omei Exc(NG)1 Bv7] (Eterna round: R96, puzzle: Exclusion NG 1)	660	887	–	–	476	–
UUAUUAAUUAAGACUGCAAGAUCACAUGAGGAUCACCCAUGUCAGGAUAUCAGCUCGUGUAGAGCUGAGAAGGGACAAGCAGUC [ExNG3/15-A3] (Eterna round: R96, puzzle: Exclusion NG 3)	314	123	–	–	97.5	–
UUAUUACAAGCAAGAUCCUACAUGAGGAUCACCCAUGUGCUCGUCUUAUAAGGUACAGUGACGAAAGUCACAGUACC [Sensor 3, v1 - 00] (puzzle: Sensor v3, turn-off variant 1)	–	–	204	221	–	138
UUAUUAUAUGAAGGAUAUACUUAACAUGAGGAUCACCCAUGUGGUGUUGUGAGUGAGUGAGUUUAGUAGAAGGUCAAUUCUUUU [JMF's solution 93] (Eterna round: R96, puzzle: Exclusion NG 2)	–	–	–	–	418	–
UUAUUAUAUGUAGGAUAUGCAUAUUAUUAUUAUGCAGAAGGACAUGAGGAUCACCCAUGUAUAUUAUUAUUAUAUAUUAUGUAU [Title] (Eterna round: R96, puzzle: Exclusion NG 1)	–	–	–	–	27.5	–
UUAUUCAGAGGAUAUGCGCAUAGAUAAGACUUUUUUUCUUAACAUGAGGAUCACCCAUGUAGAAGGCUGUAAUA [Ex2 #57] (Eterna round: R97, puzzle: Exclusion 2)	19.8	18.4	–	–	–	–
